This note sets out measurements from US20230365705A1 (DYNAMICURE BIOTECHNOLOGY, published 2023).

For test [1], the target named is T1, Human CD93 on cells (human CD93 expressing CHO cells; HUVEC, U937 and KG1a cells) (human, UniProt Q9NPY3 22-652).
T1 construct: whole, on cells; also called hCD93 expressing CHO cells; hCD93 CHO cells
T1 sequence (looked up): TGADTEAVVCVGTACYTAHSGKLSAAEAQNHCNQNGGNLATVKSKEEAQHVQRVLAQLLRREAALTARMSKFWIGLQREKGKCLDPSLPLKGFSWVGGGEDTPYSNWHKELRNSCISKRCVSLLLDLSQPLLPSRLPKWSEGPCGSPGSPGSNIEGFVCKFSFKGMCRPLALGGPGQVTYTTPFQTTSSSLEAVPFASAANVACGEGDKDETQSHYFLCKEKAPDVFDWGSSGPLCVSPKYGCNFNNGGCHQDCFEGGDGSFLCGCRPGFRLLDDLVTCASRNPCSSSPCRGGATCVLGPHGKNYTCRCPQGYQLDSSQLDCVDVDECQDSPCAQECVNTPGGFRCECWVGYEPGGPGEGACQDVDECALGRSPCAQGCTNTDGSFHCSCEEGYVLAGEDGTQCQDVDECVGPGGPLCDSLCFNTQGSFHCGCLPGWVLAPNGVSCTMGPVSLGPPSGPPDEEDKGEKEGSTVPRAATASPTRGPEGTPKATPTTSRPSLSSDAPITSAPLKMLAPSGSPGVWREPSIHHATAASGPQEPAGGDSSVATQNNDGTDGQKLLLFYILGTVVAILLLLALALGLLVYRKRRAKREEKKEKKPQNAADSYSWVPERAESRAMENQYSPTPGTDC
Kind of test: flow cytometry blocking assay, CHO-hCD93 cells; blocked ligand hMMRN2 495-674 at 0.1 ug/ml; antibody stored 4 weeks at 40 C. The protocol: (§1) Then the cells were incubated with hMMRN2₄₉₅₋₆₇₄ at 0.1 μg/ml. […] After washing with FACS buffer twice, the samples were analyzed, and data acquired in NovoCyte Flow. Recombinant his tagged hMMRN2₄₉₅₋₆₇₄ was produced internally in E. Coli following routine procedure.

Test [2] deals with T1, Human CD93 on cells (human CD93 …). Put plainly: flow cytometry blocking assay, CHO-hCD93 cells; blocked ligand hMMRN2 495-674 at 0.1 ug/ml, APC anti-His. The protocol:
as §1
(In general: In flow cytometry, cells or beads pass a laser one at a time.)

Test [3] addresses T2, cynomolgus CD93 protein (made in-house) (cynomolgus, UniProt A0A2K5VH53 22-580).
T2 construct: Biotinylated in BLI; also called cyno CD93; cynoCD93
T2 sequence: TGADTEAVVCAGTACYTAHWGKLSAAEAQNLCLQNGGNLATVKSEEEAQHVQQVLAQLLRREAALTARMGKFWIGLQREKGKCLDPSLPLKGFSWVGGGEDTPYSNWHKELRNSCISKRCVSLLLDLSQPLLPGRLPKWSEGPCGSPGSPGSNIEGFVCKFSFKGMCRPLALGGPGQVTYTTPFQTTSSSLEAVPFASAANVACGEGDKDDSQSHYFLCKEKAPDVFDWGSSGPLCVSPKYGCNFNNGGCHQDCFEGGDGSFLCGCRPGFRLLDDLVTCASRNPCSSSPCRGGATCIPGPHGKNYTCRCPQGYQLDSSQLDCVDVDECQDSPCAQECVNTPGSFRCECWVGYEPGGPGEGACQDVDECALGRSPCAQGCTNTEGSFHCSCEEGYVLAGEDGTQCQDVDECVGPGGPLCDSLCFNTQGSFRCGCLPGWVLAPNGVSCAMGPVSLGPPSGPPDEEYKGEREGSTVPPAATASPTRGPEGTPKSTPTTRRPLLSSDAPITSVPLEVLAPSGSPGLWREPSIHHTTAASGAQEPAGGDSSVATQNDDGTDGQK
Kind of test: BLI (Octet QKe), biotinylated CD93 on streptavidin biosensors; table under the cynoCD93 panels. Here is the method: The binding affinity of anti-CD93 antibodies were determined with bio-layer interferometry using Octet QKe (Fortebio). Human CD93 recombinant protein (Sino Biological Inc, Catalog #12589-H08H) or cynomolgus CD93 protein (made in-house) were biotinylated using EZ-LINK NHS-PEG4 biotin (Thermo Fisher Scientific). Streptavidin biosensors (Fortebio) were used to load biotinylated CD93 protein (300 seconds at 5 μg/ml). The baseline was stabilized for 60 seconds in a 1× kinetics buffer (Fortebio) before serially diluted anti-CD93 antibodies were allowed to associate for 300 seconds with captured protein. The sensors were dissociated in a 1× kinetics buffer for 600 seconds.

In test [4] the target is T3, Human CD93 recombinant protein (Sino Biological Inc, Catalog #12589-H08H) (human, UniProt Q9NPY3 22-580).
T3 construct: Biotinylated (EZ-LINK NHS-PEG4 biotin) in the BLI assays; also called hCD93; His-tagged human CD93
T3 sequence (looked up): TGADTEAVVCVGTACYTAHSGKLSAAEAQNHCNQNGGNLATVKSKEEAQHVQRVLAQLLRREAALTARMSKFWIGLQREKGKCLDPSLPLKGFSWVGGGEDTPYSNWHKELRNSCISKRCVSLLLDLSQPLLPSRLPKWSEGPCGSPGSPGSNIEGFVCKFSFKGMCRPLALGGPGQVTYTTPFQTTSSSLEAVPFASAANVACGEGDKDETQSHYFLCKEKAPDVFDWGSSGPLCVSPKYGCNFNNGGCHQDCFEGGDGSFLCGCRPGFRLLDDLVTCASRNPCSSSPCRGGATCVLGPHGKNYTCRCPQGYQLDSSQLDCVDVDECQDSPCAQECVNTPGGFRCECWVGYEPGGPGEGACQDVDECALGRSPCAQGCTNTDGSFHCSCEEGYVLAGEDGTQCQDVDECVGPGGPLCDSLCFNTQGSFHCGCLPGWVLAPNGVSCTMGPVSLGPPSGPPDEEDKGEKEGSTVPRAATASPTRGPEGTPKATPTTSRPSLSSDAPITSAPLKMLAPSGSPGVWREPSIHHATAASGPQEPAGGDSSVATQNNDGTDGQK
Put plainly: BLI (Octet QKe), biotinylated human CD93 on streptavidin biosensors; antibody stored 4 weeks at 40 C. Here is the method:
The binding affinity of anti-CD93 antibodies was determined with bio-layer interferometry using Octet QKe (Fortebio). […] Human CD93 recombinant protein (Sino Biological Inc, Catalog #12589-H08H) was biotinylated using EZ-LINK NHS-PEG4 biotin (Thermo Fisher Scientific). Streptavidin biosensors (Fortebio) were used to load biotinylated CD93 protein (300 seconds in 5 μg/ml). Baseline was stabilized for 60 seconds in 1× kinetics buffer (Fortebio) before anti-CD93 antibodies, at a serial dilution, were allowed to associate for 300 seconds with captured protein. Then the sensors were dissociated in 1× kinetics buffer for 600 seconds. […] (FIG. 42).
(BLI is a label-free optical method that tracks binding on a fibre tip over time.)

A word on the IC50: it is the concentration needed to halve the response being measured. A high value points to weaker potency in that assay. Usually Kd stands for the concentration at which binding is half-saturated. For orientation: kon means the rate constant with which the complex forms. In general, koff refers to the rate constant with which the complex falls apart.

B1: h7F3 (humanized 7F3, VH3+VL3) (antibody, human IgG1, V domains shown)
VH: QVQLVQSGAEVKKPGASVKVSCKASGYTFTDYEMHWVRQAPGQGLEWMGGIDPETGDTAYNQNFKGRVTMTTDTSTSTAYMELRSLTSDDTAVYYCTNYGNLYYYAMDYWGQGTSVTVSS
VL: EIVLTQSPSSLSASVGDRVTITCRASSSVSSSYLHWYQQKPGKAPKLLIYSTSNLAFGVPSRFSGSGSGTSYTFTISSLQPEDIATYYCQQYSGYPLTFGSGTKLEIK
notes: also called humanized 7F3-hIgG1
As for B1, the IC50 was determined as 0.153 nM in test [1] and 0.173 nM in test [2].

B2: 16E4 (hybridoma) (antibody, IgG2a, V domains shown)
VH: QVQLQQPGAELVKPGASVKLSCKASGYTFTSYWMHWVKQRPGQGLEWIGEIDPSASYTYYNQKFKGKATLTVDKSSSTAYMQLSSLTSEDSAVYYCARSVYYGNKYFDVWGAGTTVTVSS
VL: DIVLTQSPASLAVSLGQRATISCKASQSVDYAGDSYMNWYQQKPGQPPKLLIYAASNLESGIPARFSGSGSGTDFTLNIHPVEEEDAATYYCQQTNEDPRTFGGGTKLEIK
notes: also called 16E4 mAb; 16E4 mIgG2a
For B2, in test [3], the Kd is 0.446 nM and the kon is 663000 M⁻¹ s⁻¹.

B3: h16E4 (humanized 16E4, VH4+VL6) (antibody, V domains shown)
VH: QVQLVQSGAEVKKPGASVKVSCKASGYTFTSYWMHWVRQAPGQGLEWMGEIDPSASYTYYNQKFKGRVTMTRDKSSSTVYMELSSLTSEDSAVYYCARSVYYGNKYFDVWGAGTTVTVSS
VL: DIQMTQSPSTLSASVGDRVTITCKASQSVDYAGDSYMNWYQQKPGKAPKLLIYAASNLESGVPSRFSGSGSGTEFTLTISSLQPDDFATYYCQQTNEDPRTFGGGTKLEIK
notes: Detected with anti-human IgG, so a human Fc
As to B3, in test [4], the Kd worked out at 0.112 nM, the koff amounted to 3.24e-05 s⁻¹ and the kon was 289000 M⁻¹ s⁻¹.
